Biological target: transforming growth factor-beta receptor 2 (TGFBR2) (human) (UniProt P37173)
Experiment: cell-based or functional assay

Chain of UniProt P37173 (P37173 23-567): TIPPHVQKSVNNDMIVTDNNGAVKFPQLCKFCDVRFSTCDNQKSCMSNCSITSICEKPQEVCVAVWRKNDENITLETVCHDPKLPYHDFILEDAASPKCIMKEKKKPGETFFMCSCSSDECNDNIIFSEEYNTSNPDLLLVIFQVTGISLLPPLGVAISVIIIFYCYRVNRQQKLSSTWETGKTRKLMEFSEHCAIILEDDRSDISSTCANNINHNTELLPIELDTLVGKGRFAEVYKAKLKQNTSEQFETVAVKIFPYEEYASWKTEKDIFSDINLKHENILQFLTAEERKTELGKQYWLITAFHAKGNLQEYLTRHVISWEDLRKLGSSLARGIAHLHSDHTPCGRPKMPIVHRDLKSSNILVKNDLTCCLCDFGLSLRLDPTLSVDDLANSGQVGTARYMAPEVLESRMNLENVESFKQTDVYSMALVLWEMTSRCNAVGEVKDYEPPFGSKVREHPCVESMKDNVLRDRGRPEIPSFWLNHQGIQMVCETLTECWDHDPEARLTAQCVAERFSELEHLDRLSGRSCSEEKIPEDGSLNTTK

fold change in cytokine concentration from TGF-β:vehicle treated cells (pro-inflammatory cytokine secretion, 3 days, TGF-β 10 ng/ml) (fold change (ratio)): < 1
Substance: transforming growth factor-β (TGFβ) (ligand)

From US20220409663A1
